According to patent US20100222280A1 (PROYECTO DE BIOMEDICINA CIMA S L, published 2010):

Legend:
biotinylated TGF-β1 = biotinylated TGF-β1 (Homo sapiens (Human), UniProt P01137 279-390, Biotinylated (site or sites not stated) for capture on streptavidin plates. The active cytokine is a disulfide-linked 25 kDa homodimer; one subunit is given.); test: phage display biopanning on biotinylated TGF-β1 on streptavidin plates; clones among 108 colonies after 3 cycles
TGF-β1 (Roche) [1] = test: cell-based or functional assay
Sequence of TGF-β1 (Roche) (P01137 279-390): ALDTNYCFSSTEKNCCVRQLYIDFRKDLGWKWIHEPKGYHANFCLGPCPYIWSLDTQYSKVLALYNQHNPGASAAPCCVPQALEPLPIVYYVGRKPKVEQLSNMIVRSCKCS

[2] = target: TGF-β1 raised in mice by acute liver damage (CCl4) (mouse, UniProt P04202 279-390, limits assumed); test: cell-based or functional assay
Sequence of TGF-β1 raised in mice by acute liver damage (CCl4) (P04202 279-390 limits assumed): as the sequence (P01137 279-390) above, with A75S counted along it

TGF-β1 (Roche) [3] = test: cell-based or functional assay; remark: listed apart in the source

Sequence of biotinylated TGF-β1 (P01137 279-390 limits assumed, form in doubt): as the sequence (P01137 279-390) above

Binder	No. colonies (biotinylated TGF-β1) [colonies]	% Inhibition (Mv-1-Lu cell line growth reestablishment, 3H-thymidine) (TGF-β1 (Roche) [1]) [%]	% Inhibition (type I collagen mRNA induction, acute liver damage model in mice) [2] [%]	% Inhibition (Mv-1-Lu cell line growth reestablishment) (TGF-β1 (Roche) [3]) [%]
WHWRHRIPLQLAAGR (15-aa peptide) [peptide identified by SEQ ID NO: 8]	2	15.7	–	–
GWHSLLHSRYHRLAA (15-aa peptide) [peptide identified by SEQ ID NO: 9]	1	4.98	26.6	–
FIPRSSWYERA [truncated peptide SEQ ID NO: 30 (T7)]	–	–	–	-0.3
KRIWFIPRSS [truncated peptide SEQ ID NO: 35 (T12)]	–	–	–	6
HRISHFAHRYLARLH (15-aa peptide) [peptide identified by SEQ ID NO: 7]	2	-25	–	–
KRIWFIPRSSWYERA (15-aa peptide) [TGF-β1 inhibitor peptide P17 (SEQ ID NO: 17)]	3	38.9	93.1	28.5
KRIWFIPRS [truncated peptide SEQ ID NO: 36 (T13)]	–	–	–	6.2
TSLDASIIWAMMQN [peptide identified as P144 in the Spanish patent application ES 2146552 A1 (SEQ ID NO: 51)]	–	7.26	-3.51	–
RRWVRYPVHLHSPIV (15-aa peptide) [peptide identified by SEQ ID NO: 5]	1	15.8	–	–
SGRRHLHRHHIFSLP (15-aa peptide) [peptide identified by SEQ ID NO: 14]	2	3.62	49.8	–
GWITFHRRHHDRVLS (15-aa peptide) [peptide identified by SEQ ID NO: 15]	1	13.4	14.3	–
IWFIPRSSWYERA [truncated peptide SEQ ID NO: 26 (T3)]	–	–	–	4.5
WFIPRSSWY [truncated peptide SEQ ID NO: 28 (T5)]	–	–	–	3.1
MPLSRYWWLFSHRPR (15-aa peptide) [peptide identified by SEQ ID NO: 18]	1	21.3	–	–
RHLSHFKWLRSHGLD (15-aa peptide) [peptide identified by SEQ ID NO: 19]	1	9.71	12.1	–
WHKYFLRRPLSVGLG (15-aa peptide) [peptide identified by SEQ ID NO: 12]	1	10.7	–	–
RLAHSHRHRSHVALT (15-aa peptide) [peptide identified by SEQ ID NO: 4]	18	5.53	51.3	–
KRIWFIPRSSWYER [truncated peptide SEQ ID NO: 33 (T10)]	–	–	–	31.4

Binder	No. colonies (biotinylated TGF-β1) [colonies]	% Inhibition (Mv-1-Lu cell line growth reestablishment, 3H-thymidine) (TGF-β1 (Roche) [1]) [%]	% Inhibition (type I collagen mRNA induction, acute liver damage model in mice) [2] [%]	% Inhibition (Mv-1-Lu cell line growth reestablishment) (TGF-β1 (Roche) [3]) [%]
PRSSWYERA [truncated peptide SEQ ID NO: 32 (T9)]	–	–	–	3.8
RRFHFHSRMVAVDNS (15-aa peptide) [peptide identified by SEQ ID NO: 20]	1	6.16	1.41	–
WFIPRSSWYERA [truncated peptide SEQ ID NO: 29 (T6)]	–	–	–	2.7
RLHGHRSHRFTHVAQ (15-aa peptide) [peptide identified by SEQ ID NO: 16]	1	9.47	–	–
DRRIFWWSLRSAPGA (15-aa peptide) [peptide identified by SEQ ID NO: 1]	6	3.33	0.69	–
DRRIFWWSNRSAPGA (15-aa peptide) [peptide identified by SEQ ID NO: 2]	1	-0.96	36.6	–
PPYHRFWRGHRHAVQ (15-aa peptide) [peptide identified by SEQ ID NO: 6]	12	12.8	74.9	–
KRIWFIPRSSWY [truncated peptide SEQ ID NO: 34 (T11)]	–	–	–	34.4
RKWFLQHRRMPVSVL (15-aa peptide) [peptide identified by SEQ ID NO: 13]	6	18	32.7	–
RIWFIPRSSWYER [truncated peptide SEQ ID NO: 25 (T2)]	–	–	–	6.2
VPMALNHGVYVMVSS (15-aa peptide) [peptide identified by SEQ ID NO: 22]	1	4.13	–	–
IPRSSWYERA [truncated peptide SEQ ID NO: 31 (T8)]	–	–	–	3.4
HVRLHHYLRHRSLPN (15-aa peptide) [peptide identified by SEQ ID NO: 21]	1	13.4	–	–
WHKYFLRRPLSVRTR (15-aa peptide) [peptide identified by SEQ ID NO: 11]	4	27.4	39.3	–
IWFIPRSSWYE [truncated peptide SEQ ID NO: 27 (T4)]	–	–	–	1.4
RIWFIPRSSWYERA [truncated peptide SEQ ID NO: 24 (T1)]	–	–	–	9.4
RFFTRFPWHYHASRL (15-aa peptide) [peptide identified by SEQ ID NO: 3]	41	25.4	2.09	–
FVWVRFHRLPRQIYT (15-aa peptide) [peptide identified by SEQ ID NO: 10]	1	-4.58	–	–
